Data from patent US20190336574A1 (TRUSTEES OF PRINCETON UNIVERSITY, published 2019).

B1: GST-MTDH (364-582), wild type (other)
chain: YQWDVSRNQPYIDDEWSGLNGLSSADPNSDWNAPAEEWGNWVDEERASLLKSQEPIPDDQKVSDDDKEKGEGALPTGKSKKKKKKKKKQGEDNSTAQDTEELEKEIREDLPVNTSKTRPKQEKAFSLKTISTSDPAEVLVKNSQPIKTLPPATSTEPSVILSKSDSDKSSSQVPPILQETDKSKSNTKQNSVPPSQTKSETSWESPKQIKKKKKARRET
notes: not shown: N-terminal GST tag with TEV site, pQlink vector
B2: GST-MTDH (364-582) E400R (other)
chain: YQWDVSRNQPYIDDEWSGLNGLSSADPNSDWNAPAERWGNWVDEERASLLKSQEPIPDDQKVSDDDKEKGEGALPTGKSKKKKKKKKKQGEDNSTAQDTEELEKEIREDLPVNTSKTRPKQEKAFSLKTISTSDPAEVLVKNSQPIKTLPPATSTEPSVILSKSDSDKSSSQVPPILQETDKSKSNTKQNSVPPSQTKSETSWESPKQIKKKKKARRET
notes: as for B1
B3: GST-MTDH (364-582) E400A (other)
chain: YQWDVSRNQPYIDDEWSGLNGLSSADPNSDWNAPAEAWGNWVDEERASLLKSQEPIPDDQKVSDDDKEKGEGALPTGKSKKKKKKKKKQGEDNSTAQDTEELEKEIREDLPVNTSKTRPKQEKAFSLKTISTSDPAEVLVKNSQPIKTLPPATSTEPSVILSKSDSDKSSSQVPPILQETDKSKSNTKQNSVPPSQTKSETSWESPKQIKKKKKARRET
notes: as for B1
B4: GST-MTDH (364-582) D389R (other)
chain: YQWDVSRNQPYIDDEWSGLNGLSSARPNSDWNAPAEEWGNWVDEERASLLKSQEPIPDDQKVSDDDKEKGEGALPTGKSKKKKKKKKKQGEDNSTAQDTEELEKEIREDLPVNTSKTRPKQEKAFSLKTISTSDPAEVLVKNSQPIKTLPPATSTEPSVILSKSDSDKSSSQVPPILQETDKSKSNTKQNSVPPSQTKSETSWESPKQIKKKKKARRET
notes: as for B1
B5: GST-MTDH (364-582) N395A (other)
chain: YQWDVSRNQPYIDDEWSGLNGLSSADPNSDWAAPAEEWGNWVDEERASLLKSQEPIPDDQKVSDDDKEKGEGALPTGKSKKKKKKKKKQGEDNSTAQDTEELEKEIREDLPVNTSKTRPKQEKAFSLKTISTSDPAEVLVKNSQPIKTLPPATSTEPSVILSKSDSDKSSSQVPPILQETDKSKSNTKQNSVPPSQTKSETSWESPKQIKKKKKARRET
notes: as for B1
B6: SND1 (16-339) Δ39-43 (deletion in the SN1 Lβ2-β3 loop) (other)
chain: VPTVQRGIIKMVLSGCAIIVRGQPPERQINLSNIRAGNLARRAAATQPDAKDTPDEPWAFPAREFLRKKLIGKEVCFTIENKTPQGREYGMIYLGKDTNGENIAESLVAEGLATRREGMRANNPEQNRLSECEEQAKAAKKGMWSEGNGSHTIRDLKYTIENPRHFVDSHHQKPVNAIIEHVRDGSVVRALLLPDYYLVTVMLSGIKCPTFRREADGSETPEPFAAEAKFFTESRLLQRDVQIILESCHNQNILGTILHPNGNITELLLKEGFARCVDWSIAVYTRGAEKLRAAERFAKERRLRIWRDYVAPTANLDQK
notes: also called 439-43; not shown: N-terminal His tag (His6, His8 or His) with TEV site, pQlink vector
B7: His-SND1(16-339) P43G/R324E (protein)
single chain: VPTVQRGIIKMVLSGCAIIVRGQPRGGGPPERQINLSNIRAGNLARRAAATQPDAKDTPDEPWAFPAREFLRKKLIGKEVCFTIENKTPQGREYGMIYLGKDTNGENIAESLVAEGLATRREGMRANNPEQNRLSECEEQAKAAKKGMWSEGNGSHTIRDLKYTIENPRHFVDSHHQKPVNAIIEHVRDGSVVRALLLPDYYLVTVMLSGIKCPTFRREADGSETPEPFAAEAKFFTESRLLQRDVQIILESCHNQNILGTILHPNGNITELLLKEGFARCVDWSIAVYTRGAEKLRAAERFAKERRLEIWRDYVAPTANLDQK
B8: His-SND1 (16-339), SN1/2 domains, wild type (other)
chain: VPTVQRGIIKMVLSGCAIIVRGQPRGGPPPERQINLSNIRAGNLARRAAATQPDAKDTPDEPWAFPAREFLRKKLIGKEVCFTIENKTPQGREYGMIYLGKDTNGENIAESLVAEGLATRREGMRANNPEQNRLSECEEQAKAAKKGMWSEGNGSHTIRDLKYTIENPRHFVDSHHQKPVNAIIEHVRDGSVVRALLLPDYYLVTVMLSGIKCPTFRREADGSETPEPFAAEAKFFTESRLLQRDVQIILESCHNQNILGTILHPNGNITELLLKEGFARCVDWSIAVYTRGAEKLRAAERFAKERRLRIWRDYVAPTANLDQK
notes: also called His6-SND1 harboring the SN1/2 domains; not shown: N-terminal His tag (His6, His8 or His) with TEV site, pQlink vector
B9: SND1 (16-339) F250A (other)
chain: VPTVQRGIIKMVLSGCAIIVRGQPRGGPPPERQINLSNIRAGNLARRAAATQPDAKDTPDEPWAFPAREFLRKKLIGKEVCFTIENKTPQGREYGMIYLGKDTNGENIAESLVAEGLATRREGMRANNPEQNRLSECEEQAKAAKKGMWSEGNGSHTIRDLKYTIENPRHFVDSHHQKPVNAIIEHVRDGSVVRALLLPDYYLVTVMLSGIKCPTFRREADGSETPEPFAAEAKAFTESRLLQRDVQIILESCHNQNILGTILHPNGNITELLLKEGFARCVDWSIAVYTRGAEKLRAAERFAKERRLRIWRDYVAPTANLDQK
notes: not shown: N-terminal His tag (His6, His8 or His) with TEV site, pQlink vector
B10: SND1 (16-339) R324A (other)
chain: VPTVQRGIIKMVLSGCAIIVRGQPRGGPPPERQINLSNIRAGNLARRAAATQPDAKDTPDEPWAFPAREFLRKKLIGKEVCFTIENKTPQGREYGMIYLGKDTNGENIAESLVAEGLATRREGMRANNPEQNRLSECEEQAKAAKKGMWSEGNGSHTIRDLKYTIENPRHFVDSHHQKPVNAIIEHVRDGSVVRALLLPDYYLVTVMLSGIKCPTFRREADGSETPEPFAAEAKFFTESRLLQRDVQIILESCHNQNILGTILHPNGNITELLLKEGFARCVDWSIAVYTRGAEKLRAAERFAKERRLAIWRDYVAPTANLDQK
notes: as for B9
B11: His-SND1(16-339) P43G (other)
single chain: VPTVQRGIIKMVLSGCAIIVRGQPRGGGPPERQINLSNIRAGNLARRAAATQPDAKDTPDEPWAFPAREFLRKKLIGKEVCFTIENKTPQGREYGMIYLGKDTNGENIAESLVAEGLATRREGMRANNPEQNRLSECEEQAKAAKKGMWSEGNGSHTIRDLKYTIENPRHFVDSHHQKPVNAIIEHVRDGSVVRALLLPDYYLVTVMLSGIKCPTFRREADGSETPEPFAAEAKFFTESRLLQRDVQIILESCHNQNILGTILHPNGNITELLLKEGFARCVDWSIAVYTRGAEKLRAAERFAKERRLRIWRDYVAPTANLDQK
notes: mutant named only on the sheet
B12: SND1 (16-339) R255E (other)
chain: VPTVQRGIIKMVLSGCAIIVRGQPRGGPPPERQINLSNIRAGNLARRAAATQPDAKDTPDEPWAFPAREFLRKKLIGKEVCFTIENKTPQGREYGMIYLGKDTNGENIAESLVAEGLATRREGMRANNPEQNRLSECEEQAKAAKKGMWSEGNGSHTIRDLKYTIENPRHFVDSHHQKPVNAIIEHVRDGSVVRALLLPDYYLVTVMLSGIKCPTFRREADGSETPEPFAAEAKFFTESELLQRDVQIILESCHNQNILGTILHPNGNITELLLKEGFARCVDWSIAVYTRGAEKLRAAERFAKERRLRIWRDYVAPTANLDQK
notes: as for B9
B13: SND1 (16-339) R316E (negative control mutation outside the interface) (other)
chain: VPTVQRGIIKMVLSGCAIIVRGQPRGGPPPERQINLSNIRAGNLARRAAATQPDAKDTPDEPWAFPAREFLRKKLIGKEVCFTIENKTPQGREYGMIYLGKDTNGENIAESLVAEGLATRREGMRANNPEQNRLSECEEQAKAAKKGMWSEGNGSHTIRDLKYTIENPRHFVDSHHQKPVNAIIEHVRDGSVVRALLLPDYYLVTVMLSGIKCPTFRREADGSETPEPFAAEAKFFTESRLLQRDVQIILESCHNQNILGTILHPNGNITELLLKEGFARCVDWSIAVYTRGAEKLRAAEEFAKERRLRIWRDYVAPTANLDQK
notes: as for B9
B14: SND1 (16-339) R324E (other)
chain: VPTVQRGIIKMVLSGCAIIVRGQPRGGPPPERQINLSNIRAGNLARRAAATQPDAKDTPDEPWAFPAREFLRKKLIGKEVCFTIENKTPQGREYGMIYLGKDTNGENIAESLVAEGLATRREGMRANNPEQNRLSECEEQAKAAKKGMWSEGNGSHTIRDLKYTIENPRHFVDSHHQKPVNAIIEHVRDGSVVRALLLPDYYLVTVMLSGIKCPTFRREADGSETPEPFAAEAKFFTESRLLQRDVQIILESCHNQNILGTILHPNGNITELLLKEGFARCVDWSIAVYTRGAEKLRAAERFAKERRLEIWRDYVAPTANLDQK
notes: as for B9

Target: B8
Assay: GST pull-down on glutathione resin, SDS-PAGE, Coomassie blue; normalised percentage of binding, mean±SEM of three experiments
Description: (§1) The proteins bound to GS4B were examined on SDS-PAGE and visualized by Coomassie blue staining. […] The bound proteins were examined as in (FIG. 22A). For both (FIG. 22A) and (FIG. 22B), experiments were repeated three times; representative results are shown. The normalized percentage of binding was averaged from three experiments; mean±SEM was shown below the data. (FIG. 22C) HEK293T cells were transfected with human HA-SND1, WT Myc-MTDH or Myc-MTDH with indicated single point mutation. Lysates were immunoprecipitated with anti-Myc antibody and immunoblotted with the indicated antibodies. (FIG. 22D) HEK293T cells were transfected with human Myc-MTDH, WT HA-SND1 or mutant HA-SND1 with indicated single point mutations or deletions. Lysates were immunoprecipitated with anti-Myc and immunoblotted with the indicated antibodies.
(§2) GST-Mediated Pull-Down Assay: ˜20 μg of GST-MTDH (different truncation forms and site mutants) was bound to 10 μl of glutathione resin via GST tag. The resin was washed with 200 μl assay buffer (25 mM Tris, PH8.0, 150 mM NaCl, 3 mM DTT) three times to remove the excess unbound protein. […] The mixture was washed with 200 μl assay buffer twice before examined by SDS-PAGE, and visualized by Coomassie blue staining. The experiments were repeated 3 times and the ratio of SND1 associated with GST-MTDH was analyzed by ImageJ.
Identification of MTDH and SND1 mutants deficient in binding: To gain insight into how the interface characterized above contributes to MTDH-SND1 interaction, structure-guided mutagenesis studies were performed.

First: B1
Second: B2
The “% Maximum binding” value of the first is higher: 100% for the first, 70% for the second.

First: B3
Second: B4
The “% Maximum binding” value of the first is higher: 80% for the first, 60% for the second.

In the case of B5, the “% Maximum binding” value is reported as 84%.

Target: B1
Assay: pull-down by GST-MTDH (364-582) on glutathione resin, SDS-PAGE, Coomassie blue; normalised percentage of binding, mean±SEM of three experiments
Description: as §1, §2

Going from B6 to B7, the “% Maximum binding” value rises from 2% to 9%.

Compared with B8, B9 is lower in “% Maximum binding” value: 100% for the first, 9% for the second.

Going from B10 to B11, the “% Maximum binding” value falls from 70% to 67%.

Going from B12 to B13, the “% Maximum binding” value rises from 2% to 88%.

With B14 the “% Maximum binding” value was 26%.
